A word on the stoichiometry N: it is the number of molecules, sites or subunits per partner or assembly.

The values that follow come from article PMC6686036, “Structural Basis for the Differential Regulatory Roles of the PDZ Domain in C-Terminal Processing Proteases” (mBio, 2019).

Test in all cases: crystal structure; purified Prc mutant and sNlpI mixed in a 1:2 molar ratio, complex isolated on Superdex 200 (25 mM Tris-HCl pH 8.0, 150 mM NaCl); hanging-drop vapor diffusion at 22°C (16°C for sNlpI–Prc-ΔPDZ)
Series [1] concerns the molecule itself.
The next series addresses T1, Prc-S452I/L252Y (E. coli, UniProt P23865 23-682, S452I | L252Y).
T1 construct: also called Prc S452I/L252Y double mutant; unliganded resting Prc; source: E. coli ΔPrc cells (strain MR812), purified (Ni-NTA, Mono Q, Superdex 200 with sNlpI)
T1 sequence (looked up): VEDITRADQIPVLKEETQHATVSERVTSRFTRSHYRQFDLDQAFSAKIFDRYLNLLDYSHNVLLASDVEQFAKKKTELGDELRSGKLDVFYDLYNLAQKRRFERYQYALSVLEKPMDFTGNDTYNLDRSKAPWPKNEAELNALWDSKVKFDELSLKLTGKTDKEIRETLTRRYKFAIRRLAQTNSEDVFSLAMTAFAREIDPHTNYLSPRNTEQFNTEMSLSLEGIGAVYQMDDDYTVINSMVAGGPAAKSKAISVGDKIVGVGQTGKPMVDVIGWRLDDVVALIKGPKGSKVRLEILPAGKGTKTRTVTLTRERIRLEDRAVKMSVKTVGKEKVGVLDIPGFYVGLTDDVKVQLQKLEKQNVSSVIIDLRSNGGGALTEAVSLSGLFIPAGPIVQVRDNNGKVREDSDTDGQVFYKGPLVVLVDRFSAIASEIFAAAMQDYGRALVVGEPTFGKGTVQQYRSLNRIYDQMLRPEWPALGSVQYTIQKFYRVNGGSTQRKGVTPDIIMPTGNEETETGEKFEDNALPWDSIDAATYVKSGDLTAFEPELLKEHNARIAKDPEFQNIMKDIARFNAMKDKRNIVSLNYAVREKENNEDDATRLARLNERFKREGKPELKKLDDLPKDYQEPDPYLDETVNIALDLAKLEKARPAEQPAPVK
To be noted: both partners purified.

For series [2], the target named is T2, Prc-ΔPDZ (Prc with the deletion of residues 247 to 339) (E. coli, UniProt P23865 23-682, Δ247-339).
T2 construct: Prc (Tsp), tail-specific C-terminal processing protease of E. coli, with the PDZ domain (residues 247 to 339) deleted; cloned into pTrc99A; also called Prc-PDZ; source: E. coli ΔPrc cells (strain MR812), purified (Ni-NTA, Mono Q, Superdex 200 with sNlpI)
T2 sequence (looked up): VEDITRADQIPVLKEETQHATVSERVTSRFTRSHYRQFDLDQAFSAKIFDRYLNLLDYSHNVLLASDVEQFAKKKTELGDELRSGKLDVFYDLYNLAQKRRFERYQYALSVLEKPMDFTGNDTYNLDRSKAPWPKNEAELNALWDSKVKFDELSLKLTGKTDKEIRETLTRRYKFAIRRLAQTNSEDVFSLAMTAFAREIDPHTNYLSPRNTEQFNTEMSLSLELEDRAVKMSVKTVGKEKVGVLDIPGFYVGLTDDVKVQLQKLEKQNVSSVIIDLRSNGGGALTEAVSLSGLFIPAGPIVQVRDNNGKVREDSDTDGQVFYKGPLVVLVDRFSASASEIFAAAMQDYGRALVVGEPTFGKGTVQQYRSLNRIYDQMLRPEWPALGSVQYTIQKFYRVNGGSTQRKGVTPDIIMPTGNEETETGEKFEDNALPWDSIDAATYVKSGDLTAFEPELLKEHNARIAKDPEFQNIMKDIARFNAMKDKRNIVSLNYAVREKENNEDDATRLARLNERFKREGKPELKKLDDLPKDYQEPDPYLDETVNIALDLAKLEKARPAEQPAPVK
To be noted: both partners purified.

A further series has as its target T3, Prc-L245A/L340G (E. coli, UniProt P23865 23-682, L245A | L340G).
T3 construct: also called Prc L245A/L340G double mutant; source: E. coli ΔPrc cells (strain MR812), purified (Ni-NTA, Mono Q, Superdex 200 with sNlpI)
T3 sequence (looked up): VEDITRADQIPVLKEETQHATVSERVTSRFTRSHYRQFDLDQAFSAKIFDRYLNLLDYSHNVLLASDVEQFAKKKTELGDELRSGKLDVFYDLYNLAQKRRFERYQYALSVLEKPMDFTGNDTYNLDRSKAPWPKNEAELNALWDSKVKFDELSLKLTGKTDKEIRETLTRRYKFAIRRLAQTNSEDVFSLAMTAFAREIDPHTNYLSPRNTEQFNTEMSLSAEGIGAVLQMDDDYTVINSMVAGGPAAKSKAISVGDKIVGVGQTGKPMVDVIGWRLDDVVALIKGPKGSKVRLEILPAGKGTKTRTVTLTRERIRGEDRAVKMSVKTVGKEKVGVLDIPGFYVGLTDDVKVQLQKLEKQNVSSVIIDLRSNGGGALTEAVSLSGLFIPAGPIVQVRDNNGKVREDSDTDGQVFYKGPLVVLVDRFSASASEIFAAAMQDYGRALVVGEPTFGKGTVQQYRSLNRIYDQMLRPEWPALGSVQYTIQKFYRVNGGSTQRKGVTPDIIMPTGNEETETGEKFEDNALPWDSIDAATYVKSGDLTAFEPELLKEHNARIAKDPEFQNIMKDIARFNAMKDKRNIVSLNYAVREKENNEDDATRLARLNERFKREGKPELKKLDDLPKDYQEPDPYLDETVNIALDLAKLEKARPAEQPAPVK
To be noted: both partners purified.

B1: soluble form of NlpI (sNlpI) (natural protein, E. coli, UniProt P0AFB1 19-294, looked up)
chain: CSNTSWRKSEVLAVPLQPTLQQEVILARMEQILASRALTDDERAQLLYERGVLYDSLGLRALARNDFSQALAIRPDMPEVFNYLGIYLTQAGNFDAAYEAFDSVLELDPTYNYAHLNRGIALYYGGRDKLAQDDLLAFYQDDPNDPFRSLWLYLAEQKLDEKQAKEVLKQHFEKSDKEQWGWNIVEFYLGNISEQTLMERLKADATDNTSLAEHLSETNFYLGKYYLSLGDLDSATALFKLAVANNVHNFVEHRYALLELSLLGQDQDDLAESDQQ
notes: NlpI of E. coli without its lipoprotein signal peptide (expressed without the lipid anchor); a TEV protease cleavage site follows the N-terminal His tag; source: E. coli BL21(λDE3), purified (Ni-NTA, Mono Q, Superdex 200 with Prc)
For B1, in series [1], the “stoichiometry N” value worked out at 2. The binding result (with Prc-S452I/L252Y; in series [2]; in the series with Prc-L245A/L340G) was “binds” throughout.
